Source: the DeepSol protein solubility set

experiment: soluble on expression in E. coli; label from the status in PepcDB or PDB records

Sequence | soluble on expression in E. coli
VNDNQLAPVARPRSPLELLDTVPDSLLRRLKQYSGRLATEAVSAMQERLPFFADLEASQRASVALVVQTAVVNFVEWMHDPHSDVGYTAQAFELVPQDLTRRIALRQTVDMVRVTMEFFEEVVPLLARSEEQLTALTVGILKYSRDLAFTAATAYADAAEARGTWDSRMEASVVDAVVRGDTGPELLSRAAALNWDTTAPATVLVGTPAPGPNGSNSDGDSERASQDVRDTAARHGRAALTDVHGTWLVAIVSGQLSPTEKFLKDLLAAFADAPVVIGPTAPMLTAAHRSASEAISGMNAVAGWRGAPRPVLARELLPERALMGDASAIVALHTDVMRPLADAGPTLIETLDAYLDCGGAIEACARKLFVHPNTVRYRLKRITDFTGRDPTQPRDAYVLRVAATVGQLNYPTPH | not soluble
MKRMLFIFVSSFLLIALAACAQGKETKSELDYDQTKKMIVDILKTDQGKKAIQDVLTDEKMKQALILDETVVKKTIEDAMVSDKGQQFWEKLFKDPEFSSKFAKSMGKEQTQLMKTLLKDPEYQAGVIEIMKNPEVEKMMLQTMKSKEYRQYLQQVLTETAESPLFQAKMIDIISKGVQKAEKGGSGKKEAGGDGGSQGEKKEEQ | not soluble
MLRLLLRHHFHCLLLCAVWATPCLASPWSTLTANQNPSPPWSKLTYSKPHDAATFYCPFLYPSPPRSPLQFSGFQQVSTGPECRNETLYLLYNREGQTLVERSSTWVKKVIWYLSGRNQTILQRMPQTASKPSDGNVQISVEDAKIFGAHMVPKQTKLLRFVVNDGTRYQMCVMKLESWAHVFRDYSVSFQVRLTFTEANNQTYTFCTHPNLIVLEHHHHHH | not soluble
MMSDQKDEEEYSHSSNRSEDEDEERTIDNEINRSPNKSYKLGNIIGNGSFGVVYEAICIDTSEQVAIKKVLQDPQYKNRELMIMKNLNHINIIYLKDYYYTESFKKNEKNIFLNVVMEYIPQTVHKYMKYYSRNNQALPMFLVKLYSYQLCRALSYIHSKFICHRDLKPQNLLIDPRTHTLKLCDFGSAKNLLAGQRSVSYICSRFYRAPELMLGSTNYTTHIDLWSLGCIIAEMILGYPIFSGQSSVDQLVRIIQVLGTPTEDQLKEMNPNYADIKFPDVKSKDLRKVFPKGTPDEAINLITQFLKYEPLKRLNPIEALADPFFDELRDPCIKLPKYIDKLPELFNFCKEEIQEMSMECRRKIIPKNVYEEFLMVDE | not soluble
MSSLWLDQARGSEPACPALQGATRADVCIVGGGYTGLWTALQLREQSPGLDIVLLEAQECGAGASGRNGGFMLSWAAKFETLLKVCGTDEALRLLGESERIAADVAGYLKRHGVDAQLRQDGWLWTASNAAQVDSWMPCIELLARHGQQAFVALPADEVRRLSGSAAHLAGVLSRSSATVHPGMYVRGLRRIALAKGIRIYEHTPMRSLRARPQPTVATARGEVRAAKVVLAMNAWSTRFRELNKGVVVVGSDLVATAPHPEALEKIGLTSGVAISDSRLFTNYYRNTCAGEMVFGRGGGDFAFNGAVGRLYEGPSRFAREVAAILHRFYPALAPLGIVRSWSGPIDRSMDGLPCFGHLGGHPDIVYGYGYSGNGVGPTYLGGKFLASMVLENDDAWRHSALARGLRGRFPPEPFRYVGSRVVKAALVRKEAAEDQGQAPARLDTMLAGLAPGGLVPVARKEKALEHHHHHH | not soluble
MTEEFEIAGISTGAWWSSPTNTAAVFSGYSLPCSTEISPDVTNFGWQNFDNKINDHNDGCMNMHNSFFEGLLIDPNDQLLPDPWSKSTIPNAKSELLENFPFLDNMFLVDSEAESLLDHEIRNHKSSKEQITQDYKNLTSKAQLEENSDEYSPRLLKRPRLETLSPLPSFKVRKEKLGDRITALQQLVSPFGKTDTASVLNEAVEYIKFLQEQVTVLSNPEQNTIGSVQQQQCSNKKSINTQGEVEEDECSPRRYVDLSSRGLCLMPISASYPVAAAAASAAEMNVHLVSGIFHSL | soluble
MSLSKSLQKPTILNVETVARSRLFTVESVDLEFSNGVRRVYERMRPTNREAVMIVPIVDDHLILIREYAVGTESYELGFSKGLIDPGESVYEAANRELKEEVGFGANDLTFLKKLSMAPSYFSSKMNIVVAQDLYPESLEGDEPEPLPQVRWPLAHMMDLLEDPDFNEARNVSALFLVREWLKGQGRVEGGSHHHHHH | soluble
MPPKKQQEVVKVQWGRPGNNLKTGIVGMPNVGKSTFFRAITKSVLGNPANYPYATIDPEEAKVAVPDERFDWLCEAYKPKSRVPAFLTVFDIAGLTKGASTGVGLGNAFLSHVRAVDAIYQVVRAFDDAEIIHVEGDVDPIRDLSIIVDELLIKDAEFVEKHLEGLRKITSRGANTLEMKAKKEEQAIIEKVYQYLTETKQPIRKGDWSNREVEIINSLYLLTAKPVIYLVNMSERDFLRQKNKYLPKIKKWIDENSPGDTLIPMSVAFEERLTNFTEEEAIEECKKLNTKSMLPKIIVTGYNALNLINYFTCGEDEVRSWTIRKGTKAPQAAGVIHTDFEKAFVVGEIMHYQDLFDYKTENACRAAGKYLTKGKEYVMESGDIAHWKAGKR | soluble
MGSDKIHHHHHHMWELDVSPTRFKAHFSLDPGVACLNHGMLGACPISVQQRQSTLRAQLERQPAAFVLRALPALLDTARNCLAEVIGADPQDLLLLPNVTTAMSAVLRSRIFAPGDQILTTDHAYLSCRNLLEFIARSTGAEVMVAPVKVPVQHPDAIVDAVLERVTARTRLAVLDHVTSPTAIVFPIARLVERLAALGIDTLVDGAHAPGMLPLDVIAIGAAYYAGDCHKWLCTPRGAGFLHVRRDRQDGLHPPVISRGYGDATPGRPRLHLEFDWLGTADPTALLCIPAAIDFLATLLPGGLPAVFARNHALVTQAAARLAQALPLARLAPDAMVGSMVAFQLPDAASDAPDDAAASLQRWLYDAHRIDVAVTPWPHRTNRTLRISAQVYNAAEDFMQLDAPLAQCLAPDDRQSNNQCRTTEVMR | not soluble
MCGDCVEKEYPNRGNTCLENGSFLLNFTGCAVCSKRDFMLITNKSLKEEDGEEIVTYDPDLCKNCHHVIARHEYTFSIMDEFQEYTMLCLLCAKPKILSVFSLMTPDKLEHHHHHH | soluble
MSDEQIDKLVSRLDGALNRLGNVKKDHPLESSSNSKPTHQPKSPAPYRQKIEKLSAEVVDSNPYSRLMALQRMGIVNEYERIREKTVAVVGVGGVGSVVAEMLTRCGIGKLILFDYDKVEIANMNRLFYQPNQAGLSKVEAARDTLIHVNPDVQIEVHNFNITTMDNFDTFVNRIRKGSLTDGKIDLVLSCVDNFEARMAVNMACNEENQIWMESGVSENAVSGHIQYIEPGKTACFACVPPLVVASGIDERTLKRDGVCAASLPTTMAVVAGFLVMNTLKYLLNFGEVSQYVGYNALSDFFPRDSIKPNPYCDDSHCLQRQKEYEEKVANQPVDLEVEVPEEETVVHEDNEWGIELVNESEPSAEQSSSLNAGTGLKFAYEPIKRDAQTELSPAQAATHDFMKSIKDKLVEEAQNKGK | not soluble
MSLTDRIRRLRQESFDTQPSLSIERALIETEFYKENEGKYPIPILRALNFLEICKRKTIYIGEDELIVGERGPRPKAVSTFPELTCHSVEDLHVLNTRELQRYTISQEDIDTYEREVIPYWKGRTQRERIFNHVPKEWKEAYEVGMFTEFMEQRAPGHTSLDGKVYQHGMLDLKERIAHELKNLDFMNDPEATDKQEELTAMSISCDAAIIFAERHAELAEKMAGQETDPKRKEELKKIAEICRWVPAHAPRTYWEAIQMYWFVHLGTITELNGWDAMNPGHFDQHLAPFYEKDLEEGILTRAEAKELMSCFFIKVNNQTAPPKVGITAKESGTYNDFTNLNIGGIKRDGSNGVSEVSYIMLETVDDLHLLQPGSALHISVCTPERFLREGCKVIRKGYGYPSVFNPDTYVMELMRQGKTPEDAREGGCSGCIEVGAFGKEAYILTGYLNVPKILEVTLHNGTDPVSGKKVGLVTGDPCTFRSYEALYDAFLKQIHYFVDMKVRVSNYIDRMFAKYAPATFLSLFIDDCIAKGKDYYNCGPRYNTSYIQCTGLGTITDSLSVLKKHVFEERKFNMEQIIHATDTNFEGQEAMRQFILNRTPFFGNDDEYADRIAIQIFNDLYDAIEGKPNTKGECFHLNMLSTTCHVYFGKMMNATPNGREGHHHHHH | soluble
GSSGSSGGEIIEGCRLPVLRRNQDNEDEWPLAEILSVKDISGRKLFYVHYIDFNRRLDEWVTHERLDLKKIQFPKKEAKTPSGPSSG | soluble
MSLDVTNRIERALTEALNQADMAGCPPRLAAAMRSAVFPRGARVRPRLCHSVALACGEDNPGITEAAGAALELMHCASLIHDDLPCFDGADLRRGRPSVHKAFGEPLAVLAGDAMIVLAFQTIARAEGQADRLLKLTQIIGGAVGVPFGIVAGQAWECETEINLAHYHRSKTGALFVAATAMGAASAGSDPEPWRMVGEKIGEAYQVADDLRDAAADVEEIGKPVGQDVAHDRPSAVREMGIDGAIYHLKSLVRGAVEAMPECTNGNELRSLIMSEATRLVPAEGHHHHHH | soluble
MINFHPNVKRAISQAAQKYGLPESFLERVAMIESKGNPNARNSKSSAGGLYQFLDSTAKQYQLNNKFDPFQATDAMARLTKDNTRYLATALGREPSQAELYLAHQQGPAGAVKLIKNPNVPASQLLGRQAVVLNGGNVEATAGDFMNHIYGLYNKTGEASNGRARQSWGNGQSAANEVVPLRGVERFQKAIQGAQARKPLMAYDTPLHENTRFQGQGIDAGALKKSVMSLVDLMRRNKDAQNQQIEMAHQQMMQQPMMTGFSQSSAHPVDLTLLIDPSRRNPVRSYGQQKKQQLQEELLRRTGAYHV | not soluble
MGSDKIHHHHHHMPILLLAQSDAHLSLGAAQGPGAELDRRACEQLDIPVLRRPLGGGVVWVDPGQLNYFFIFPAAAGVRRAPELFDRIAPWVLAVHAHFGLEVEVRGGQDFWCRGRKIGGTGAASIGHSLVLGGSFILEAQWTSFADCVAAPSAGFRAWLKEALEEDLGSWSRLLGRVVGPEVVLDACPALLHAAGWDVVVTRPTEAERRAMTQVELEDVDWEQPVRRRVRAGIKLKAGAFLTEQHWPDGHWLRVWTENGTFRRIAGSAWSAGQGDTLTGLQPGSERFDERLREMAGAGAALWGERLSETAVWAD | not soluble
MREDNQSLSHTTWNCKYHIVFAPKYRRQIIYGRYKASIGRIIRDLCERKGVIIHEANACSDHIHMLISIPPKLSVSSFMGYLKGKSSLMIFDKHANLKYKYGNRKFWCRGYYVDTVGRNQKVIAEYIQNQLQEDRVADQLTLFESVDPFTGEINKRK | not soluble
MKVAILGYGTVGSAVVKFLLENDKLIRARCGQSITPVIALARSPKKNALIPITHSVAEILNADVDVFVELMGGVDEAFKIVSEILKKKKAVVTANKAMLAYHRYELENLAKNLAFGYEASVAGGIPIIKVLKEGLSANNILAIKGILNGTSNYILSSMSQKNMSFKQALQIAQNLGYAEADPTFDIEGQDAAHKLLVLSSIAYNLKAKPEDILIEGISEIAPEDMYFANEFEFTIKLLGIAKVRENKVELRVHPTMIDKEKMLAKVDGVMNAISINGDLLGESLYYGAGAGGEATASAVISDLMDIARDQVKAPMLGFVNTLEYKLLSKDEIYTKYYLRVKVEDKIGILSKITQLMSENNISIDSFLQKPKKNDENYSTLFFTTHLTYEKSIQNLLEILRKQDFIKTKPFMMRIE | not soluble
